Patent US20250296995A1 (GlaxoSmithKline, published 2025)
Substitutions are numbered along the chain they refer to. Values joined by “and” are separate entries in the source; they are usually repeats but may differ in a detail not shown here. Equal entries are not always repeated.

Columns and labels:
[1] = molecular target: T1, recombinant CNTNAP2 protein (human, UniProt Q9UHC6 28-1262); assay: SPR with recombinant protein
T1 sequence (looked up): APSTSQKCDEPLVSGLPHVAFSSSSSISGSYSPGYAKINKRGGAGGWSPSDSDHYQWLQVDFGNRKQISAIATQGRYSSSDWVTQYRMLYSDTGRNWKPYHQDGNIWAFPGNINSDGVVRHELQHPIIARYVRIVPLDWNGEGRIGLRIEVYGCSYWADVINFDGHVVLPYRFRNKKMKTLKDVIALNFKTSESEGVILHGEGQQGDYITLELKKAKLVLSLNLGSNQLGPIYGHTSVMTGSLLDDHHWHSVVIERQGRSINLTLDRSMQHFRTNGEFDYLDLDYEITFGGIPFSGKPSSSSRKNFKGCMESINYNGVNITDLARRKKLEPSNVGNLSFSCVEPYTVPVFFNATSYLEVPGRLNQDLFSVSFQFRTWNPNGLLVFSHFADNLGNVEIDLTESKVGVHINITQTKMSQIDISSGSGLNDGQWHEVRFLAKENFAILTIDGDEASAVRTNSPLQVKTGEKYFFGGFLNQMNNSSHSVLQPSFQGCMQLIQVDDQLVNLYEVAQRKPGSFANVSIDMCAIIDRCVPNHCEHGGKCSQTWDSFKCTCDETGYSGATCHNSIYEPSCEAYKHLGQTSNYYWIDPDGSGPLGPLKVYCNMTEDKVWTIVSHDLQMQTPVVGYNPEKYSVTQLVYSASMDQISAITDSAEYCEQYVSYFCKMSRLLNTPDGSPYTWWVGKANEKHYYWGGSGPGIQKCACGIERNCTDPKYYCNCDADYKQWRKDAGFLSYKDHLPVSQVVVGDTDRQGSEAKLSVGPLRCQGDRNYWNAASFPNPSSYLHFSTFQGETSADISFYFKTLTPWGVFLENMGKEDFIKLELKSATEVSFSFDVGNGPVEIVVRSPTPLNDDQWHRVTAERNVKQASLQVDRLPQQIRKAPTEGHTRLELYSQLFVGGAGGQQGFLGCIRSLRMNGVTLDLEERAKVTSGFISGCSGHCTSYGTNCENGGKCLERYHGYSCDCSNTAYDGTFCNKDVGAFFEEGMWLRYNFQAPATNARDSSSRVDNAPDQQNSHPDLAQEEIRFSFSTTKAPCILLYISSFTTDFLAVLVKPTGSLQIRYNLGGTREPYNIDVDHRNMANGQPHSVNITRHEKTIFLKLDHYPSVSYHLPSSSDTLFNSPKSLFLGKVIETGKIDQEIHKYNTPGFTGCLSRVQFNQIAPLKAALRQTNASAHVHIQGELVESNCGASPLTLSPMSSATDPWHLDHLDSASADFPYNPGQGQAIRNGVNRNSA

[2] = molecular target: recombinant Plasmodium falciparum circumsporozoite protein (CSP) (Plasmodium falciparum, UniProt P19597 21-375); assay: cell-based or functional assay
Target sequence in this assay (P19597 21-375 limits assumed): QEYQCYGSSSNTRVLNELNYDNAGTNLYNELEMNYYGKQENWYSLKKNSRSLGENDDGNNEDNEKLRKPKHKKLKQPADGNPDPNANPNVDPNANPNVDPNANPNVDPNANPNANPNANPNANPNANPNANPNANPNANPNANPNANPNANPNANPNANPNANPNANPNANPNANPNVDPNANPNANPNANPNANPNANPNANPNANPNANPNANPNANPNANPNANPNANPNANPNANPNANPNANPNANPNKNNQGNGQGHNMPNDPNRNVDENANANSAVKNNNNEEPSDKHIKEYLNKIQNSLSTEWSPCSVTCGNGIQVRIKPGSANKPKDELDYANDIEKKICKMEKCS

[3] = molecular target: T2, recombinant Plasmodium falciparum circumsporozoite protein (CSP) (Plasmodium falciparum, UniProt P19597 21-375); assay: SPR, recombinant CSP; geometric mean, n=3
T2 construct: also called recombinant CSP
T2 sequence (P19597 21-375 limits assumed): as above

[4] = molecular target: T2, recombinant Plasmodium falciparum …; assay: SPR, recombinant CSP; n=1
[5] = molecular target: T2, recombinant Plasmodium falciparum …; assay: cell-based or functional assay; remark: listed apart in the source
human FcγRIIb = molecular target: T3, human FcγRIIb (human, UniProt P31994 43-217); assay: SPR, human FcγR
T3 construct: also called hFcγRIIb
T3 sequence (looked up): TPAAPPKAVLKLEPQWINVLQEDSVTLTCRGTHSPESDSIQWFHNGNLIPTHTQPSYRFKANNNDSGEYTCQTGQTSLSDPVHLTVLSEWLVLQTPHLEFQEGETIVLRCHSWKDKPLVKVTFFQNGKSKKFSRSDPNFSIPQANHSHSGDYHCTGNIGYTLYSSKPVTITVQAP
Text: (§1) A human IgG1 antibody in both WT and Fc silenced (LAGA) formats were included as negative control.

human FcγRIIa (R131) = molecular target: T4, human FcγRIIa (R131) (human, UniProt P12318 36-218); assay: SPR, human FcγR
T4 construct: also called hFcγRIIaR
T4 sequence (looked up): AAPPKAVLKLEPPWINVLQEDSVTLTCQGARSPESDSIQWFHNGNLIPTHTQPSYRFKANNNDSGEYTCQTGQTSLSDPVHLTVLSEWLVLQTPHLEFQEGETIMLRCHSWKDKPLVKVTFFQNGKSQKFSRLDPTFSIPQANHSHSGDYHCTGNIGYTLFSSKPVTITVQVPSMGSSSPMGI
Text: as §1

human FcγRIIIa (V158) = molecular target: T5, human FcγRIIIa (V158) (human, UniProt P08637 17-208); assay: SPR, human FcγR
T5 construct: also called hFcγRIIIaV
T5 sequence (P08637 17-208 F176V limits assumed): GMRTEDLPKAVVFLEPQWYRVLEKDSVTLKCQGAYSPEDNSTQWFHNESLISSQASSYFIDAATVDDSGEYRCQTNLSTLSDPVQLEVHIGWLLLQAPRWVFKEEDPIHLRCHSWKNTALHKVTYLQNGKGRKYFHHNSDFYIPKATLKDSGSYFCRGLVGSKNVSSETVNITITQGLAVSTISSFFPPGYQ
Text: as §1

human FcγRI = molecular target: T6, human FcγRI (human, UniProt P12314 16-288); assay: SPR, human FcγR
T6 construct: also called hFcγRI; CD64
T6 sequence (P12314 16-288 limits assumed): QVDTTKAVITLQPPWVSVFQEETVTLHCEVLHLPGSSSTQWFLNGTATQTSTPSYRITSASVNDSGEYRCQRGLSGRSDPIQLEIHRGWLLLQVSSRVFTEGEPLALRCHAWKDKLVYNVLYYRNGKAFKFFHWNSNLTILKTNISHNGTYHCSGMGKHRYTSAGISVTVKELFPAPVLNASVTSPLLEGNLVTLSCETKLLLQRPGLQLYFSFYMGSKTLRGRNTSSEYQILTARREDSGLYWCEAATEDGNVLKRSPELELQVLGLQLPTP
Text: as §1

human FcγRIIIa (F158) = molecular target: T7, human FcγRIIIa (F158) (human, UniProt P08637 17-208); assay: SPR, human FcγR
T7 construct: also called hFcγRIIIaF
T7 sequence (P08637 17-208 limits assumed): as the sequence (P08637 17-208 F176V limits assumed) above, with V160F counted along it
Text: as §1

human FcγRIIa (H131) = molecular target: T8, human FcγRIIa (H131) (human, UniProt P12318 36-218); assay: SPR, human FcγR
T8 construct: also called hFcγRIIaH
T8 sequence (looked up): T4 sequence (looked up) with R132H
Text: as §1

[6] = molecular target: T2, recombinant Plasmodium falciparum …; assay: cell-based or functional assay; remark: listed apart in the source
[7] = molecular target: T2, recombinant Plasmodium falciparum …; assay: cell-based or functional assay; remark: listed apart in the source
human FcRn = molecular target: T9, human FcRn (human, UniProt P55899 24-297; P61769 21-119); assay: SPR, human FcRn, pH 6.0
T9 construct: also called neonatal Fc receptor
T9 sequence (P55899 24-297 limits assumed, form in doubt, chain 1 of 2): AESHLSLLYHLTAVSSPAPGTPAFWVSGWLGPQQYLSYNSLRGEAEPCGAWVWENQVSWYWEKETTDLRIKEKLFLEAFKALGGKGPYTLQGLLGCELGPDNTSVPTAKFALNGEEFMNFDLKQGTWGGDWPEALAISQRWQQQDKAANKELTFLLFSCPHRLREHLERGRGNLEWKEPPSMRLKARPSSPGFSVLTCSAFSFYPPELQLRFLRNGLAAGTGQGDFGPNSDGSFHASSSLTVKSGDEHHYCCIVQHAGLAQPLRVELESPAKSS
T9 sequence (P61769 21-119 limits assumed, form in doubt, chain 2 of 2): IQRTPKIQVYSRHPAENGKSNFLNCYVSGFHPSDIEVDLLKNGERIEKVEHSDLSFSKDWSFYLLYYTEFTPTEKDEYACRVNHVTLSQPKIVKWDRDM

B1: 356-ALE-LS (antibody, human IgG1, kappa)
heavy: QVQLVESGGGVVQPGRSLRLSCAASGFTFRNFGMHWVRQTPGKGLEWVAVIWHDGSNKFYADSVEGRFTISRDNSKNMIYLQMNSLRVEDTAIYYCARDSLFYDHDNSGYYGYWGQGTLVTVSSASTKGPSVFPLAPSSKSTSGGTAALGCLVKDYFPEPVTVSWNSGALTSGVHTFPAVLQSSGLYSLSSVVTVPSSSLGTQTYICNVNHKPSNTKVDKKVEPKSCDKTHTCPPCPAPELLAGPSVFLFPPKPKDTLMISRTPEVTCVVVDVSHEDPEVKFNWYVDGVEVHNAKTKPREEQYNSTYRVVSVLTVLHQDWLNGKEYKCKVSNKALPLPEEKTISKAKGQPREPQVYTLPPSRDELTKNQVSLTCLVKGFYPSDIAVEWESNGQPENNYKTTPPVLDSDGSFFLYSKLTVDKSRWQQGNVFSCSVLHEALHSHYTQKSLSLSPGK
light: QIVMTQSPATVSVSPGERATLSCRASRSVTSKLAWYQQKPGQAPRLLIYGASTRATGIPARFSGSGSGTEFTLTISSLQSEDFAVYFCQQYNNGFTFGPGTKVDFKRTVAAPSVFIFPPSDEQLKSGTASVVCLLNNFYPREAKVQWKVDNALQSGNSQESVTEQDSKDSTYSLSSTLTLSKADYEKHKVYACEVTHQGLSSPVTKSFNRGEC
[1]
  binding result: no binding (tested: 300 nM)
[2]
  EC50 in ADCP assay: < 0.001 nM

B2: AB-000356 ALE LS (antibody, human IgG1, kappa)
heavy: B1 heavy
light: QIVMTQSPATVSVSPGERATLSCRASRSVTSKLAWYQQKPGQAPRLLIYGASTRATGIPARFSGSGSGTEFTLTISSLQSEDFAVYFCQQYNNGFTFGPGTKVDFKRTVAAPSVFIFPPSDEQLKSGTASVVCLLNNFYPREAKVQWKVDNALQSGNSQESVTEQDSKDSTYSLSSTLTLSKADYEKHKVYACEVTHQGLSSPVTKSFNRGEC
[3]
  Kd: 1.1 nM
[4]
  Kd: 1.58 nM
[5]
  Geo Mean EC50 (ug/ml), ADNKA, Donor 1: 0.0052 µg/mL
  Geo Mean EC50 (ug/ml), ADNKA, Donor 2: 0.0035 µg/mL
  Geo Mean EC50 (ug/ml), ADNKA, Donor 3: 0.189 µg/mL
  Geo Mean EC50 (ug/ml), ADNKA, Donor 4: 0.0104 µg/mL
Human FcγRIIb
  Kd: 3890 nM
Human FcγRIIa (R131)
  Kd: 675 nM and 766 nM
Human FcγRIIIa (V158)
  Kd: 73 nM and 144 nM
Human FcγRI
  Kd: 56 nM and 157 nM
Human FcγRIIIa (F158)
  Kd: 89 nM and 246 nM
Human FcγRIIa (H131)
  Kd: 218 nM and 268 nM
[6]
  GeoMean EC50 (M), ADCP repeat, n=4: 6.45e-13 M
  Mean EC50 (pM), ADCP repeat, n=4: 0.6 pM
  Mean pEC50, ADCP repeat, n=4: 12.2
[7]
  GeoMean EC50 (M), ADCP: 5.03e-13 M
  Mean EC50 (pM), ADCP: 0.5 pM
  Mean pEC50, ADCP: 12.3
Human FcRn
  Kd: 52 nM

B3: 356-DEA-FV-LS (antibody, human IgG1, kappa)
heavy: B1 heavy with S246D, T257V, A294F, L337A
light: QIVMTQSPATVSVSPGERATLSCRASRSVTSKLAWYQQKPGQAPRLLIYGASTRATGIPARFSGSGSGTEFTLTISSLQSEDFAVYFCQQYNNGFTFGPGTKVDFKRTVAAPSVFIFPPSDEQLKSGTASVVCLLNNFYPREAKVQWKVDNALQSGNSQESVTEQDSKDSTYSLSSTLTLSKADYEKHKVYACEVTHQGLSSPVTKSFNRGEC
[1]
  binding result: no binding (tested: 300 nM)
[2]
  EC50 in ADCP assay: < 0.001 nM
